The values that follow come from patent US12508311B2, “Fusion protein, and preparation method and use thereof” (SUN YAT-SEN UNIVERSITY, priority 2021, dated 2025).

This test deals with normal intestinal epithelial cells FHC. Kind of test: Flow cytometry of tumor cell targeting, normal cells FHC. The class given is cell-based, human. As to conditions: tested as 60 nM TKD-Cy5, 1 hour, Lys 05 10 μM. Here is the method: Wherein, the protein C18 column (25 cm×10 mm) was used, with sample injection of 2×400 μL each time, and gradient elution was carried out for 30 minutes, 0.1% TFA (trifluoroacetic acid) solution to MeCN (acetonitrile): H2O (0.1% TFA)=70:30, and a flow rate was 4 mL/min. • (4) Target color tape peaks were collected, and the retention time of a labeled polypeptide was longer than that of an unlabeled polypeptide. • (5) The TKD-Cy5 molecule was diluted to 60 μM, and stored in a PBS solution, and kept in the dark at −20° C. 2. […] The cells were treated with corresponding drugs, namely, in the experimental groups, the cells were treated with 60 nM TKD-Cy5 coupling molecule, and in the control groups, the cells were treated with the Cy5 single molecule with corresponding concentration. The lysosome inhibitor Lys 05 with the final concentration of 10 μM was added into the control groups and the experimental groups at the same time, and the final volume of the culture solution in each well was 1 mL. […] The cells were resuspended with the PBS buffer solution, and centrifuged again, and the supernatant was discarded. The operation was repeated for three times. Finally, the cleaned cells were resuspended in 0.2 mL of PBS, wrapped with foil paper, and then analyzed on the flow cytometer (company: BECKMAN COULTER; model: Cytoflex), with the fluorescence channel of APC-A.
For orientation: A flow cytometer gives signals particle by particle.

B1: TKD: fusion protein: tumour-cell-penetrating peptide BR2, anti-KRas nanobody VHH and lysosome recognition peptide CTM; SEQ ID NO.4 (protein)
chain: RAGLQFPVGRLLRRLLRDVQLQESGGGLVQAGGSLRLSCVASGRTFSTYPTGWFRQAPGKEREFVARINLSGGITNYADSVKGRFTISRDNAKNTVYLQMNSLKPEDTAVYYCGGGSTTWAGGIPTNFDYWGQGTQVTVSSGRKFERQKILDQRFFE
Take B1: the “entry into cells (flow cytometry, Cy5 fluorescence)” value is reported as “could not enter the normal colorectal epithelial cells”.
